B3: EscN ATPase, full-length, hexameric (enzyme)
chain: MISEHDSVLEKYPRIQKVLNSTVPALSLNSSTRYEGKIINIGGTIIKARLPKARIGAFYKIEPSQRLAEVIAIDEDEVFLLPFEHVSGMYCGQWLSYQGDEFKIRVGDALLGRLIDGIGRPMESNIVAPYLPFERSLYAEPPDPLLRQVIDQPFILGVRAIDGLLTCGIGQRIGIFAGSGVGKSTLLGMICNGASADIIVLALIGERGREVNEFLALLPQSTLSKCVLVVTTSDRPALERMKAAFTATTIAEYFRDQGKNVLLMMDSVTRYARAARDVGLASGEPDVRGGFPPSVFSSLPKLLERAGPAPKGSITAIYTVLLESDNVNDPIGDEVRSILDGHIVLTRELAEENHFPAIDIGLSASRVMHNVVTSEHLRAAAECKKLIATYKNVELLIRIGEYTMGQDPEADKAIKNRKLIQNFIQQSTKDISSYEKTIESLFKVVA

Data set [1] addresses B3. The data set is described as follows: NMR titration.
Data set [2] deals with the molecule itself.

B1: CesAB–EspA heterodimeric chaperone–substrate complex (complex)
chain 1: MSIVSQTRNKELLDKKIRSEIEAIKKIIAEFDVVKESVNELSEKAKTDPQAAEKLNKLIEGYTYGEERKLYDSALSKIEKLIETLSPARSKSQSTMNQRNRNNRKIV
chain 2: MDTSTTASVASANASTSTSMAYDLGSMSKDDVIDLFNKLGVFQAAILMFAYMYQAQSDLSIAKFADMNEASKESTTAQKMANLVDAKIADVQSSSDKNAKAQLPDEVISYINDPRNDITISGIDNINAQLGAGDLQTVKAAISAKANNLTTTVNNSQLEIQQMSNTLNLLTSARSDMQSLQYRTISGISLGK
On to B1, for which, in data set [1], the Kd – broadly, the concentration at which binding is half-saturated – was approximately 3000 nM.

B2: CesAB^Y64A/R68A–EspA complex (complex)
chain 1: MSIVSQTRNKELLDKKIRSEIEAIKKIIAEFDVVKESVNELSEKAKTDPQAAEKLNKLIEGYTAGEEAKLYDSALSKIEKLIETLSPARSKSQSTMNQRNRNNRKIV
chain 2: MDTSTTASVASANASTSTSMAYDLGSMSKDDVIDLFNKLGVFQAAILMFAYMYQAQSDLSIAKFADMNEASKESTTAQKMANLVDAKIADVQSSSDKNAKAQLPDEVISYINDPRNDITISGIDNINAQLGAGDLQTVKAAISAKANNLTTTVNNSQLEIQQMSNTLNLLTSARSDMQSLQYRTISGISLGK
Turning to B2, the Kd in data set [1] was more than 80000 nM.
Turning to B3, the stoichiometry N – broadly, the number of molecules, sites or subunits per partner or assembly – in data set [2] is 6.

These data come from PMC3835959 (Cell reports, 2013).
